# Laboratory results as given in publication PMC12530519.
# Target: Ty1c CA(F323S) (S. cerevisiae)
# Experiment: SEC-MALS; individual proteins, 12.5-200 µM, Superdex INCREASE 200 10/300 GL at 298 K, 50 mM Tris-HCl, 800 mM NaCl, 0.5 mM TCEP, 3 mM NaN3, pH 8.5
substance,measurement,value
Ty1c CA(F323S) (domain or fragment),stoichiometry N,2
